Measurements as given in patent US20170369595A1 (Hoffmann-La Roche, published 2017).

B1: BsAb Dig-CD33-Dig (bispecific antibody)
light: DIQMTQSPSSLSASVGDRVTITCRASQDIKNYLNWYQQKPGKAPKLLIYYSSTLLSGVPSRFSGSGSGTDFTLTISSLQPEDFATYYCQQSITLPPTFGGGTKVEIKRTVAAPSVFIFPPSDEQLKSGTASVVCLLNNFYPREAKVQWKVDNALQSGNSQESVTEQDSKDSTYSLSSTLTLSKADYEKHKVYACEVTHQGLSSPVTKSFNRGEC
heavy 1: QVQLVESGGGLVKPGGSLRLSCAASGFTFSDYAMSWIRQAPGKGLEWVSSINIGATYIYYADSVKGRFTISRDNAKNSLYLQMNSLRAEDTAVYYCARPGSPYEYDKAYYSMAYWGQGTTVTVSSASTKGPSVFPLAPSSKSTSGGTAALGCLVKDYFPEPVTVSWNSGALTSGVHTFPAVLQSSGLYSLSSVVTVPSSSLGTQTYICNVNHKPSNTKVDKKVEPKSCGGGGSGGGGSGGGGSGGGGSEVQLVQSGAEVKKPGSSVKVSCKASGYTITDSNIHWVRQAPGQSLEWIGYIYPYNGGTDYNQKFKNRATLTVDNPTNTAYMELSSLRSEDTAFYYCVNGNPWLAYWGQGTLVTVSSGQPREPQVYTLPPCRDELTKNQVSLWCLVKGFYPSDIAVEWESNGQPENNYKTTPPVLDSDGSFFLYSKLTVDKSRWQQGNVFSCSVMHEALHNHYTQKSLSLSPGK
heavy 2: QVQLVESGGGLVKPGGSLRLSCAASGFTFSDYAMSWIRQAPGKGLEWVSSINIGATYIYYADSVKGRFTISRDNAKNSLYLQMNSLRAEDTAVYYCARPGSPYEYDKAYYSMAYWGQGTTVTVSSASTKGPSVFPLAPSSKSTSGGTAALGCLVKDYFPEPVTVSWNSGALTSGVHTFPAVLQSSGLYSLSSVVTVPSSSLGTQTYICNVNHKPSNTKVDKKVEPKSCGGGGSGGGGSGGGGSGGGGSDIQLTQSPSTLSASVGDRVTITCRASESLDNYGIRFLTWFQQKPGKAPKLLMYAASNQGSGVPSRFSGSGSGTEFTLTISSLQPDDFATYYCQQTKEVPWSFGQGTKVEVKGQPREPQVCTLPPSRDELTKNQVSLSCAVKGFYPSDIAVEWESNGQPENNYKTTPPVLDSDGSFFLVSKLTVDKSRWQQGNVFSCSVMHEALHNHYTQKSLSLSPGK
notes: Trivalent, bispecific; no CH2; (Gly4Ser)4 connectors; In the FACS assay it carried Dig-Cy5 as payload
B2: BsAb CD33-Dig(SS)-CD33 (bispecific antibody)
light: DIQLTQSPSTLSASVGDRVTITCRASESLDNYGIRFLTWFQQKPGKAPKLLMYAASNQGSGVPSRFSGSGSGTEFTLTISSLQPDDFATYYCQQTKEVPWSFGQGTKVEVKRTVAAPSVFIFPPSDEQLKSGTASVVCLLNNFYPREAKVQWKVDNALQSGNSQESVTEQDSKDSTYSLSSTLTLSKADYEKHKVYACEVTHQGLSSPVTKSFNRGEC
heavy 1: EVQLVQSGAEVKKPGSSVKVSCKASGYTITDSNIHWVRQAPGQSLEWIGYIYPYNGGTDYNQKFKNRATLTVDNPTNTAYMELSSLRSEDTAFYYCVNGNPWLAYWGQGTLVTVSSASTKGPSVFPLAPSSKSTSGGTAALGCLVKDYFPEPVTVSWNSGALTSGVHTFPAVLQSSGLYSLSSVVTVPSSSLGTQTYICNVNHKPSNTKVDKKVEPKSCGGGGSGGGGSGGGGSGGGGSQVQLVESGGGLVKPGGSLRLSCAASGFTFSDYAMSWIRQAPGKCLEWVSSINIGATYIYYADSVKGRFTISRDNAKNSLYLQMNSLRAEDTAVYYCARPGSPYEYDKAYYSMAYWGQGTTVTVSSGQPREPQVYTLPPCRDELTKNQVSLWCLVKGFYPSDIAVEWESNGQPENNYKTTPPVLDSDGSFFLYSKLTVDKSRWQQGNVFSCSVMHEALHNHYTQKSLSLSPGK
heavy 2: EVQLVQSGAEVKKPGSSVKVSCKASGYTITDSNIHWVRQAPGQSLEWIGYIYPYNGGTDYNQKFKNRATLTVDNPTNTAYMELSSLRSEDTAFYYCVNGNPWLAYWGQGTLVTVSSASTKGPSVFPLAPSSKSTSGGTAALGCLVKDYFPEPVTVSWNSGALTSGVHTFPAVLQSSGLYSLSSVVTVPSSSLGTQTYICNVNHKPSNTKVDKKVEPKSCGGGGSGGGGSGGGGSGGGGSDIQMTQSPSSLSASVGDRVTITCRASQDIKNYLNWYQQKPGKAPKLLIYYSSTLLSGVPSRFSGSGSGTDFTLTISSLQPEDFATYYCQQSITLPPTFGCGTKVEIKGQPREPQVCTLPPSRDELTKNQVSLSCAVKGFYPSDIAVEWESNGQPENNYKTTPPVLDSDGSFFLVSKLTVDKSRWQQGNVFSCSVMHEALHNHYTQKSLSLSPGK
notes: as for B1

Molecular target: T1, CD33 (UniProt P20138 18-364, limits assumed)
T1 construct: whole, on cells; Endogenous antigen on Molm13 cells; also called cell surface antigen CD33; CD33-expressing Molm13 cells
Assay: FACS on CD33-expressing Molm13 cells, Dig-Cy5 as payload
Method: Simultaneous antigen binding of the antibodies generated in example 1 was analyzed by FACS analysis on LeY-expressing MCF7 cells, CD33-expressing Molm13 cells and GPC3-expressing HepG2 cells using Dig-Cy5 as payload to address hapten binding.

T1 sequence (P20138 18-364 limits assumed): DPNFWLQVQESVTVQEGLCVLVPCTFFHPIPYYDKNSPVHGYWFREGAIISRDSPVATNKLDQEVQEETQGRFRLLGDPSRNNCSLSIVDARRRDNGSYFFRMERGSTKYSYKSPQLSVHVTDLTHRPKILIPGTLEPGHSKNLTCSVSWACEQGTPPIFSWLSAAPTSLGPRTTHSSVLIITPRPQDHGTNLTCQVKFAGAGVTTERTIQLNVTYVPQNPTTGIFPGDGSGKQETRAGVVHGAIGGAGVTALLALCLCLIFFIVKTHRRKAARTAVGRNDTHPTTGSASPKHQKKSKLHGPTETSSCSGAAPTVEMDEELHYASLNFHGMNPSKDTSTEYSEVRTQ

Binder	binding result
B1	binds
B2	binds
